Reference: patent US20180155406A1 (Sanofi, published 2018)
Numbered stars: 1 amine (or outer) side, 2 acyl side, 3 side chain; on linkers, the order of the positions; unused ones are H or OH. Square brackets hold non-standard residues; d marks the D form. Side chains are listed from the residue outwards. Ends that are not written are not given here. * marks the point of attachment. γGlu = O=C(O)[C@H](CCC(=O)[*:2])N[*:1]; Palmitoyl = CCCCCCCCCCCCCCCC(=O)*; Aib = CC(C)(N)C(=O)O

T1: human GIP receptor (human, UniProt P48546 22-466)
T1 sequence (looked up): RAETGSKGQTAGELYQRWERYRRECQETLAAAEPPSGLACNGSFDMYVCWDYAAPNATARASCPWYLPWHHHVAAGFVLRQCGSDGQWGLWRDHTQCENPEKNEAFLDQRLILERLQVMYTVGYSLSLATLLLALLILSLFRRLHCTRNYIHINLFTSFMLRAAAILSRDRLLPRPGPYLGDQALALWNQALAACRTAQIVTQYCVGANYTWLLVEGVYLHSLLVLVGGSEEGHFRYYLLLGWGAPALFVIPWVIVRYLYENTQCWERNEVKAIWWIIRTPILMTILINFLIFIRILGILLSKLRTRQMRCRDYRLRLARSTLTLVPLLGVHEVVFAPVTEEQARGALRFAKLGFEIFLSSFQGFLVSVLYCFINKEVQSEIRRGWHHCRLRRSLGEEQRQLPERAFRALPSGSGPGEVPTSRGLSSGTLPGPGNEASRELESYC

B1: SEQ ID NO: 8 (peptide)
peptide: H[Aib]HGTFTSDLSKLK([γGlu-γGlu-Palmitoyl])EEQRQKEFIEWLKAGGPPS[Aib]KPPPK-NH2
B2: SEQ ID NO: 10 (peptide)
peptide: H[Aib]HGTFTSDLSKLK([γGlu-γGlu-Palmitoyl])EEQRQ[Aib]EFIEWLKAGGPPS[Aib]KPPPK-NH2
modifications: N-terminus assumed
SMILES: CCCCCCCCCCCCCCCC(=O)N[C@@H](CCC(=O)N[C@@H](CCC(=O)NCCCC[C@H](NC(=O)[C@H](CC(C)C)NC(=O)[C@H](CCCCN)NC(=O)[C@H](CO)NC(=O)[C@H](CC(C)C)NC(=O)[C@H](CC(=O)O)NC(=O)[C@H](CO)NC(=O)[C@@H](NC(=O)[C@H](Cc1ccccc1)NC(=O)[C@@H](NC(=O)CNC(=O)[C@H](Cc1c[nH]cn1)NC(=O)C(C)(C)NC(=O)[C@@H](N)Cc1c[nH]cn1)[C@@H](C)O)[C@@H](C)O)C(=O)N[C@@H](CCC(=O)O)C(=O)N[C@@H](CCC(=O)O)C(=O)N[C@@H](CCC(N)=O)C(=O)N[C@@H](CCCNC(=N)N)C(=O)N[C@@H](CCC(N)=O)C(=O)NC(C)(C)C(=O)N[C@@H](CCC(=O)O)C(=O)N[C@@H](Cc1ccccc1)C(=O)N[C@H](C(=O)N[C@@H](CCC(=O)O)C(=O)N[C@@H](Cc1c[nH]c2ccccc12)C(=O)N[C@@H](CC(C)C)C(=O)N[C@@H](CCCCN)C(=O)N[C@@H](C)C(=O)NCC(=O)NCC(=O)N1CCC[C@H]1C(=O)N1CCC[C@H]1C(=O)N[C@@H](CO)C(=O)NC(C)(C)C(=O)N[C@@H](CCCCN)C(=O)N1CCC[C@H]1C(=O)N1CCC[C@H]1C(=O)N1CCC[C@H]1C(=O)N[C@@H](CCCCN)C(N)=O)[C@@H](C)CC)C(=O)O)C(=O)O
B3: SEQ ID NO: 9 (peptide)
peptide: H[Aib]HGTFTSDLSKLK([γGlu-γGlu-Palmitoyl])EEQRQKEFIEWLKA[dA]GPPS[Aib]KPPPK-NH2
modifications: N-terminus assumed
SMILES: CCCCCCCCCCCCCCCC(=O)N[C@@H](CCC(=O)N[C@@H](CCC(=O)NCCCC[C@H](NC(=O)[C@H](CC(C)C)NC(=O)[C@H](CCCCN)NC(=O)[C@H](CO)NC(=O)[C@H](CC(C)C)NC(=O)[C@H](CC(=O)O)NC(=O)[C@H](CO)NC(=O)[C@@H](NC(=O)[C@H](Cc1ccccc1)NC(=O)[C@@H](NC(=O)CNC(=O)[C@H](Cc1c[nH]cn1)NC(=O)C(C)(C)NC(=O)[C@@H](N)Cc1c[nH]cn1)[C@@H](C)O)[C@@H](C)O)C(=O)N[C@@H](CCC(=O)O)C(=O)N[C@@H](CCC(=O)O)C(=O)N[C@@H](CCC(N)=O)C(=O)N[C@@H](CCCNC(=N)N)C(=O)N[C@@H](CCC(N)=O)C(=O)N[C@@H](CCCCN)C(=O)N[C@@H](CCC(=O)O)C(=O)N[C@@H](Cc1ccccc1)C(=O)N[C@H](C(=O)N[C@@H](CCC(=O)O)C(=O)N[C@@H](Cc1c[nH]c2ccccc12)C(=O)N[C@@H](CC(C)C)C(=O)N[C@@H](CCCCN)C(=O)N[C@@H](C)C(=O)N[C@H](C)C(=O)NCC(=O)N1CCC[C@H]1C(=O)N1CCC[C@H]1C(=O)N[C@@H](CO)C(=O)NC(C)(C)C(=O)N[C@@H](CCCCN)C(=O)N1CCC[C@H]1C(=O)N1CCC[C@H]1C(=O)N1CCC[C@H]1C(=O)N[C@@H](CCCCN)C(N)=O)[C@@H](C)CC)C(=O)O)C(=O)O
B4: SEQ ID NO: 7 (peptide)
peptide: H[Aib]HGTFTSDLSKLK([γGlu-γGlu-Palmitoyl])EEQRQKEFIEWLKA[dA]GHPS[Aib]KPPPK-NH2
modifications: N-terminus assumed
SMILES: CCCCCCCCCCCCCCCC(=O)N[C@@H](CCC(=O)N[C@@H](CCC(=O)NCCCC[C@H](NC(=O)[C@H](CC(C)C)NC(=O)[C@H](CCCCN)NC(=O)[C@H](CO)NC(=O)[C@H](CC(C)C)NC(=O)[C@H](CC(=O)O)NC(=O)[C@H](CO)NC(=O)[C@@H](NC(=O)[C@H](Cc1ccccc1)NC(=O)[C@@H](NC(=O)CNC(=O)[C@H](Cc1c[nH]cn1)NC(=O)C(C)(C)NC(=O)[C@@H](N)Cc1c[nH]cn1)[C@@H](C)O)[C@@H](C)O)C(=O)N[C@@H](CCC(=O)O)C(=O)N[C@@H](CCC(=O)O)C(=O)N[C@@H](CCC(N)=O)C(=O)N[C@@H](CCCNC(=N)N)C(=O)N[C@@H](CCC(N)=O)C(=O)N[C@@H](CCCCN)C(=O)N[C@@H](CCC(=O)O)C(=O)N[C@@H](Cc1ccccc1)C(=O)N[C@H](C(=O)N[C@@H](CCC(=O)O)C(=O)N[C@@H](Cc1c[nH]c2ccccc12)C(=O)N[C@@H](CC(C)C)C(=O)N[C@@H](CCCCN)C(=O)N[C@@H](C)C(=O)N[C@H](C)C(=O)NCC(=O)N[C@@H](Cc1c[nH]cn1)C(=O)N1CCC[C@H]1C(=O)N[C@@H](CO)C(=O)NC(C)(C)C(=O)N[C@@H](CCCCN)C(=O)N1CCC[C@H]1C(=O)N1CCC[C@H]1C(=O)N1CCC[C@H]1C(=O)N[C@@H](CCCCN)C(N)=O)[C@@H](C)CC)C(=O)O)C(=O)O
B5: SEQ ID NO: 12 (peptide)
peptide: H[Aib]HGTFTSDLSKLK([γGlu-γGlu-Palmitoyl])EEQRQ[Aib]EFIEWLKAGGHPS[Aib]KPPPK-NH2
B6: SEQ ID NO: 11 (peptide)
peptide: H[Aib]HGTFTSDLSKLK([γGlu-γGlu-Palmitoyl])EEQRQ[Aib]EFIEWLKA[dA]GPPS[Aib]KPPPK-NH2
modifications: N-terminus assumed
SMILES: CCCCCCCCCCCCCCCC(=O)N[C@@H](CCC(=O)N[C@@H](CCC(=O)NCCCC[C@H](NC(=O)[C@H](CC(C)C)NC(=O)[C@H](CCCCN)NC(=O)[C@H](CO)NC(=O)[C@H](CC(C)C)NC(=O)[C@H](CC(=O)O)NC(=O)[C@H](CO)NC(=O)[C@@H](NC(=O)[C@H](Cc1ccccc1)NC(=O)[C@@H](NC(=O)CNC(=O)[C@H](Cc1c[nH]cn1)NC(=O)C(C)(C)NC(=O)[C@@H](N)Cc1c[nH]cn1)[C@@H](C)O)[C@@H](C)O)C(=O)N[C@@H](CCC(=O)O)C(=O)N[C@@H](CCC(=O)O)C(=O)N[C@@H](CCC(N)=O)C(=O)N[C@@H](CCCNC(=N)N)C(=O)N[C@@H](CCC(N)=O)C(=O)NC(C)(C)C(=O)N[C@@H](CCC(=O)O)C(=O)N[C@@H](Cc1ccccc1)C(=O)N[C@H](C(=O)N[C@@H](CCC(=O)O)C(=O)N[C@@H](Cc1c[nH]c2ccccc12)C(=O)N[C@@H](CC(C)C)C(=O)N[C@@H](CCCCN)C(=O)N[C@@H](C)C(=O)N[C@H](C)C(=O)NCC(=O)N1CCC[C@H]1C(=O)N1CCC[C@H]1C(=O)N[C@@H](CO)C(=O)NC(C)(C)C(=O)N[C@@H](CCCCN)C(=O)N1CCC[C@H]1C(=O)N1CCC[C@H]1C(=O)N1CCC[C@H]1C(=O)N[C@@H](CCCCN)C(N)=O)[C@@H](C)CC)C(=O)O)C(=O)O

Each binder was assayed against T1, human GIP receptor (assay: cell-based or functional assay).
B1 was tested, and the “EC50 hGIP R (cAMP formation)” value was 1.6 pM. In the case of B2, the “EC50 hGIP R (cAMP formation)” value is reported as 1.1 pM. B3 was tested, and the “EC50 hGIP R (cAMP formation)” value was 2.6 pM. With B4 the “EC50 hGIP R (cAMP formation)” value was 2.6 pM. For B5, the “EC50 hGIP R (cAMP formation)” value was 1.9 pM. For B6, the “EC50 hGIP R (cAMP formation)” value was 1.5 pM.

These binders were tested against human glucagon receptor (human, UniProt P47871 26-477) (assay: cell-based or functional assay).
human glucagon receptor, sequence (P47871 26-477): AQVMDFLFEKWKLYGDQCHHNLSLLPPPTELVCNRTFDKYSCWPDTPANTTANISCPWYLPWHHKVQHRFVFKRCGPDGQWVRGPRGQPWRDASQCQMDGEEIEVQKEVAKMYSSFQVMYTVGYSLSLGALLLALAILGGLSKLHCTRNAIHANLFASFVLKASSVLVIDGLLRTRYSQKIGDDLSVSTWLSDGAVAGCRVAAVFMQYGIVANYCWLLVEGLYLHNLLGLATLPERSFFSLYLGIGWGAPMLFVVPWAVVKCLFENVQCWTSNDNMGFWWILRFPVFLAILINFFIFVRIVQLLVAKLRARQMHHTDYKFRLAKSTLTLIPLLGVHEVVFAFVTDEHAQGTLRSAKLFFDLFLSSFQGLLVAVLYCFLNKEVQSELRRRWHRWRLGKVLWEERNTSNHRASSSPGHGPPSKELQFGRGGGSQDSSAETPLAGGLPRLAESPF
B1 was tested, and the “EC50 hGlucagon R (cAMP formation)” value was 2 pM. In the case of B2, the “EC50 hGlucagon R (cAMP formation)” value is reported as 1.6 pM. B3 was tested, and the “EC50 hGlucagon R (cAMP formation)” value was 2.9 pM. B4 was tested, and the “EC50 hGlucagon R (cAMP formation)” value was 3.2 pM. In the case of B5, the “EC50 hGlucagon R (cAMP formation)” value is reported as 2 pM. B6 was tested, and the “EC50 hGlucagon R (cAMP formation)” value was 2.1 pM.

What follows are binders tested against human GLP-1 receptor (human, UniProt P43220 24-463) (assay: cell-based or functional assay).
For B1, the “EC50 hGLP-1R (cAMP formation)” value was 1.3 pM. For B2, the “EC50 hGLP-1R (cAMP formation)” value was 2.3 pM. With B3 the “EC50 hGLP-1R (cAMP formation)” value was 1.6 pM. In the case of B4, the “EC50 hGLP-1R (cAMP formation)” value is reported as 1.7 pM. In the case of B5, the “EC50 hGLP-1R (cAMP formation)” value is reported as 1.8 pM. For B6, the “EC50 hGLP-1R (cAMP formation)” value was 2.9 pM.
